We go through nine molecules from article PMC7035337, “Binding of the periplakin linker requires vimentin acidic residues D176 and E187” (Communications Biology, 2020).

Where a chain is given by its changes, count along the chain named. In names and notes the source's numbering stands. Several values for one entry are separate records, joined by “and”; a condition that tells them apart may be missing. Equal entries are not always repeated.

B1: periplakin linker domain, wild-type (residues K1646-K1756) (domain or fragment, human)
chain: KREQRENHLRRSIVVIHPDTGRELSPEEAHRAGLIDWNMFVKLRSQECDWEEISVKGPNGESSVIHDRKSGKKFSIEEALQSGRLTPAQYDRYVNKDMSIQELAVLVSGQK
notes: human periplakin linker domain, residues K1646-K1756; also called Periplakin Linker Wild-type
B2: periplakin linker domain (K1646–K1756), wild-type (domain or fragment, human, UniProt O60437 1646-1756, looked up)
chain: B1 chain
notes: periplakin linker domain, human, residues K1646-K1756; Vector pGEX-6P-1; also called wild-type periplakin linker; WT
B3: periplakin linker domain (K1646–K1756) R1713E/K1714E (domain or fragment, human, UniProt O60437 1646-1756, looked up)
chain: B1 chain with R68E, K69E
notes: periplakin linker domain, human, residues K1646-K1756
B4: periplakin linker domain (K1646–K1756) R1737E/K1741E (domain or fragment, human, UniProt O60437 1646-1756, looked up)
chain: B1 chain with R92E, K96E
notes: periplakin linker domain, human, residues K1646-K1756; also called control double mutant
B5: periplakin linker domain (K1646–K1756) K1687E/R1689E (domain or fragment, human, UniProt O60437 1646-1756, looked up)
chain: B1 chain with K42E, R44E
notes: as for B3
B6: periplakin linker domain (K1646–K1756) R1713E (domain or fragment, human, UniProt O60437 1646-1756, looked up)
chain: B1 chain with R68E
notes: periplakin linker domain, human, residues K1646-K1756; also called periplakin mutant R1713E; periplakin linker mutant R1713E
B7: periplakin linker domain (K1646–K1756) R1655E/R1656E (domain or fragment, human, UniProt O60437 1646-1756, looked up)
chain: B1 chain with R10E, R11E
notes: as for B3
B8: vimentinROD, wild-type (residues T99-I249, coils 1A and 1B) (domain or fragment)
chain: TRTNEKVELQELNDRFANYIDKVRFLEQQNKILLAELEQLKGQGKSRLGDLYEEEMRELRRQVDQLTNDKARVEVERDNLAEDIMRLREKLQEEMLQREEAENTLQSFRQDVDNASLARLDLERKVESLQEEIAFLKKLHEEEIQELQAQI
modifications: NT647 fluorescent dye (Monolith NT His-Tag Labelling Kit RED-tris-NTA)
notes: human vimentin, residues T99-I249; Non-cleavable His tag
B9: desmoplakin linker domain (Q2454–N2565) E2495K/C2497R (domain or fragment, human, UniProt P15924 2454-2565, looked up)
chain: QTSQKNTLRKRRVVIVDPETNKEMSVQEAYKKGLIDYETFKKLREQECEWEEITITGSDGSTRVVLVDRKTGSQYDIQDAIDKGLVDRKFFDQYRSGSLSLTQFADMISLKN
notes: desmoplakin linker domain, human, residues Q2454-N2565

What all share (conditions): both partners purified
Test [1] has as its target B8. Description: MST; as a1 but 50 mM NaCl: 50 nM NT647-labelled vimentinROD, periplakin linker titrated; 25 °C; one-ligand binding model.
Test [2] has as its target B8. Description: MST; as a1 but 10 mM NaCl: 50 nM NT647-labelled vimentinROD, periplakin linker titrated; 25 °C; one-ligand binding model.
In test [3] the target is B8. Description: MST; 50 nM NT647-labelled vimentinROD, linker titrated 780 nM to 800 μM; 150 mM NaCl, 20 mM HEPES pH 7.5, 0.015% Tween 20; 25 °C; MST-on time 5 s; one-ligand binding model; single experiments or merged data sets.
In a further test the target is T1, vimentinROD E172K (human, UniProt P08670 99-249, E172K, NT647 fluorescent dye (Monolith NT His-Tag Labelling Kit RED-tris-NTA)).
T1 construct: human vimentin, residues T99-I249
The test is described as above.

Another test has as its target T2, vimentinROD E180K (human, UniProt P08670 99-249, E180K, NT647 fluorescent dye (Monolith NT His-Tag Labelling Kit RED-tris-NTA)).
T2 construct: human vimentin, residues T99-I249
Described as above.

In test [4] the target is T3, vimentin^ROD (residues T99–I249) E229K (human, UniProt P08670 99-249, E229K, NT647 fluorescent dye (Monolith NT His-Tag Labelling Kit RED-tris-NTA)).
T3 construct: vimentin, human, coils 1A and 1B of the central rod domain, residues T99-I249
Description: MST; 50 nM NT647-labelled vimentin^ROD, linker titrated 780 nM to 800 uM; 150 mM NaCl, 20 mM HEPES pH 7.5, 0.015% Tween 20; 25 C; one-site binding model.

Test [5] deals with T4, vimentin^ROD (residues T99–I249), wild-type (human, UniProt P08670 99-249, NT647 fluorescent dye (Monolith NT His-Tag Labelling Kit RED-tris-NTA)).
T4 construct: vimentin, human, coils 1A and 1B of the central rod domain, residues T99-I249; Non-cleavable His tag; also called wild-type vimentin^ROD
The test is described as above.

Test [6] concerns the target T5, vimentin^ROD (residues T99–I249) E180K (human, UniProt P08670 99-249, E180K, NT647 fluorescent dye (Monolith NT His-Tag Labelling Kit RED-tris-NTA)).
T5 construct: vimentin, human, coils 1A and 1B of the central rod domain, residues T99-I249
Described as above.

Test [7] deals with T6, vimentin^ROD (residues T99–I249) E172K (human, UniProt P08670 99-249, E172K, NT647 fluorescent dye (Monolith NT His-Tag Labelling Kit RED-tris-NTA)).
T6 construct: vimentin, human, coils 1A and 1B of the central rod domain, residues T99-I249
The description is as above.

For test [8], the target named is T7, vimentin^ROD (residues T99–I249) D162K (human, UniProt P08670 99-249, D162K, NT647 fluorescent dye (Monolith NT His-Tag Labelling Kit RED-tris-NTA)).
T7 construct: vimentin, human, coils 1A and 1B of the central rod domain, residues T99-I249
The description is as above.

For test [9], the target named is T4, vimentin^ROD (residues T99–I249), …. Description: MST; as the standard MST assay (50 nM labelled vimentin^ROD, linker titrated) but in 10 mM NaCl.
In test [10] the target is T8, vimentin^ROD (residues T99–I249) D176K (human, UniProt P08670 99-249, D176K, NT647 fluorescent dye (Monolith NT His-Tag Labelling Kit RED-tris-NTA)).
T8 construct: vimentin, human, coils 1A and 1B of the central rod domain, residues T99-I249; also called D176K vimentin^ROD; vimentin mutant D176K
Description: MST; 50 nM NT647-labelled vimentin^ROD, linker titrated 780 nM to 800 uM; 150 mM NaCl, 20 mM HEPES pH 7.5, 0.015% Tween 20; 25 C; one-site binding model.

The target of test [11] is T9, periplakin linker domain K1687E/R1689E (human, UniProt O60437 1646-1756, K1687E | R1689E).
T9 construct: human periplakin linker domain, residues K1646-K1756
T9 sequence (looked up): B1 chain with K42E, R44E
Description: MST; 50 nM NT647-labelled vimentinROD, linker titrated 780 nM to 800 μM; 150 mM NaCl, 20 mM HEPES pH 7.5, 0.015% Tween 20; 25 °C; MST-on time 5 s; one-ligand binding model; single experiments or merged data sets.

Test [12] addresses T10, periplakin linker domain R1655E/R1656E (human, UniProt O60437 1646-1756, R1655E | R1656E).
T10 construct: human periplakin linker domain, residues K1646-K1756
T10 sequence (looked up): B1 chain with R10E, R11E
The test is described as above.

Test [13] concerns the target T11, periplakin linker domain R1737E/K1741E (human, UniProt O60437 1646-1756, R1737E | K1741E).
T11 construct: human periplakin linker domain, residues K1646-K1756
T11 sequence (looked up): B1 chain with R92E, K96E
The test is described as above.

Test [14] concerns the target T12, periplakin linker domain R1713E/K1714E (human, UniProt O60437 1646-1756, R1713E | K1714E).
T12 construct: human periplakin linker domain, residues K1646-K1756
T12 sequence (looked up): B1 chain with R68E, K69E
Described as above.

The target in test [15] is T13, periplakin linker domain R1713E (human, UniProt O60437 1646-1756, R1713E).
T13 construct: human periplakin linker domain, residues K1646-K1756; also called Periplakin R1713E
T13 sequence (looked up): B1 chain with R68E
The test is described as above.

T2 sequence (P08670 99-249 E180K): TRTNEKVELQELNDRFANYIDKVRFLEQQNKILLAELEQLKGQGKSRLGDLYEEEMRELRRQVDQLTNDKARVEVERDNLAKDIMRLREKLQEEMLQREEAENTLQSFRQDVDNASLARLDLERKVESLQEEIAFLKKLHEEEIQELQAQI
T4 sequence (P08670 99-249): as the sequence (P08670 99-249 E180K) above, with K82E counted along it
T1 sequence (P08670 99-249 E172K): as the sequence (P08670 99-249 E180K) above, with E74K, K82E counted along it
T7 sequence (P08670 99-249 D162K): as the sequence (P08670 99-249 E180K) above, with D64K, K82E counted along it
T5 sequence (P08670 99-249 E180K): as the sequence (P08670 99-249 E180K) above
T6 sequence (P08670 99-249 E172K): as the sequence (P08670 99-249 E180K) above, with E74K, K82E counted along it
T8 sequence (P08670 99-249 D176K): as the sequence (P08670 99-249 E180K) above, with D78K, K82E counted along it
T3 sequence (P08670 99-249 E229K): as the sequence (P08670 99-249 E180K) above, with K82E, E131K counted along it

What is called Kd is the concentration at which binding is half-saturated. A high value points to a looser complex. Regarding B1, the Kd is 59 µM and 69 µM and 71 µM and 66 µM in [1]; 31 µM and 32 µM and 30.2 µM in [2]; 59 µM and 66 µM and 70 µM and 85 µM in test [3]; 26 µM and 24 µM and 27 µM and 29 µM in the test with vimentinROD E172K; 8 µM and 4 µM and 3 µM and 5.7 µM with vimentinROD E180K.

As to B2, the Kd in test [4] came out at 16 ± 2 µM; in test [5], 70.5 ± 3.8 µM; in test [6] it was 6 ± 2 µM; in [7], 27 ± 4 µM; in test [8], 68 ± 4 µM; in test [9] it was 31 ± 2 µM.

Turning to B3, in test [5], the Kd was 135 ± 30 µM.

The molecule B4 showed a Kd in test [5] of 48 ± 11 µM.

Consider B5, for which, in test [5], the affinity, expressed as Kd, was 300 ± 54 µM.

For the molecule B6, the Kd in [5] is 200 ± 29 µM; in test [10] it was 23 ± 4 µM.

For the molecule B7, the dissociation constant (Kd) in test [5] was found to be 380 ± 51 µM.

For the molecule B8, the Kd in [11] was 312 µM and 306 µM and 273 µM; in test [12], 351 µM and 382 µM and 444 µM; in test [13] it was 57 µM and 43 µM and 29 µM and 47.9 µM; in test [14], 143 µM and 145 µM and 123 µM; in test [15], 210 µM and 160 µM and 240 µM.

In test [5], B9 displayed a Kd of 600 ± 70 µM.
